In the nanobody polyreactivity screen of Harvey et al. (2022):

experiment: yeast display, Sf9 membrane polyspecificity reagent, FACS + sequencing; frameworks hold sequencing errors
In short: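 Galactose-induced (36–48 hours) yeast carrying a synthetic nanobody display library were exposed to 10% biotinylated, detergent-solubilized Sf9 membrane reagent at 4 °C for 1 hour. FACS followed streptavidin microbead enrichment, using low and high (top ~1%) gates for expression (anti-HA) and reagent binding (streptavidin). Colony PCR, MiSeq 2 × 250 sequencing and CDR-length filtering followed. Labels for polyreactivity reflect the gate of origin.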

| Sequence | polyreactivity (PSR sort gate) |
| --- | --- |
| QVQLVESGGGIVKAGGSLRISCAASGSTFIVNAMGWYRQAPGKERELVAAITEDGDTTYYADSVKGRFTISRDNAKNTVYLQMNSLKPEDTAVYFCAAETYYLDDYWGQGTQVTVSS | high polyreactivity |
| QVQLVESGGGLVQAGGSLRLSCAASGSTFRYYVMGWYSQSPGKERELVAGISYRGGTTYYADSVKGRFTISRDNAKNTVYLQMYILKPEDTAVYYCNAETAAAQASYDRLYVLLDYWGQGTQVTVSS | low polyreactivity |
| QVQLVESGGGLVQAGGSLRLSCAASGITFVRYAMGWYRQAPGKERELVAAISSGGSTHYADSVKGRFTISRDNAKNTVYLQMYSLKPEDTAVYYCAAQWTESSLYRFGYLGQGTQVTVSS | high polyreactivity |
| QVQLVESGGGLVQAGGSLRLSCAASGHIFFYYTMGWYRQAPGKERELVAGITIGGSTNYADSVKGRFTISRDNAKNTVYLKMNSLKPEDTAVYYCNVVKYVYIYSYWEYYYWGQGTQVTVSS | low polyreactivity |
| QVQLVESGGGLVQAGGSLRLSCAASGITFYRYAMGWYRQAPGKERELVAAITSSGGSTYYADSVKGRFTISRDNAKNTVYLQMNSLKPQDTAVYYCAARDLGRYPPKLYYWGQGTQVTVSS | high polyreactivity |
| QVQLVESGGGLVQAGGSLRLSCAASGSTFSRYAMGWYRQAPGKERELVAAISWGGNTYYADSVKGRFTISRDNAKNTVYLQMNSLKPEDTAVYYCNRYSKLYNTMDYWGQGPQVTVSS | high polyreactivity |
| QVQLVESGGGLVQAGGSLRLSCAASGRIFGRYTMGWYRQAPGKERELVAAISARGGSTYYADSVKGRFTISRDNAKNTVYLQMNSLKPEDTAVYYCNTVRVHGFPIDRIYDYWGQGTQVTVSS | high polyreactivity |
| QVQLVESGGGLVQAGGSLRLSCAASGRTYGEYGMGWYRQAPGKERELVAAISSTGSTYYADSVKGRFTISRDNAKNTVYLQMNSLKPEDTAVYYCAAEIVRYGDEYDYWGQGTQVTVSS | low polyreactivity |
| QVQLQESGGGLVQAGGSLRLSCAASGSIFHLHIMSWYRHAPGKERESVAAISYGTSTYYADSVKCRFTICRDNAKNTVYLQINIPKPDDTAVYYCAALFLVSKHHHYWGEGTQVTVSS | low polyreactivity |
| QVQLVESGGGLVQAGGSLRLSCAASGSTYAFYAMGWYRQAPGKERELVAAITSGGSTKYADSVKGRFTISRDNAKNTVYLQMNSLKPEDTAFYYCAARSRWSKLFRYDYWGQGTQVTVSS | high polyreactivity |
| QVQLVESGGGLVQAGGSLRLSCDASGLIFRPYARGWFRQAPGKERELVAAITSGGSTDYADSVKGRFTISRDNAKNTVYLLMNSLKPADTAVYYCNADIYPHDGYPWQGDYDYWGQGTQVTVSS | low polyreactivity |
| QVQLVESGGGLVQAGGSLRLSCAASGRTFYRYAMGWYRQAPGKERELVAGITSGGITYYADSVKGRFTISRDNAKNTVYLQMNSLKPEDTAVYYCAASYAFFSYRAWYTSGNEYWGQGTQVTVSS | high polyreactivity |
| QVHLVESGGGLVQAGGSLRLSCAASGNSFTGNAMGWYRQAPGKETELVAALSKRGGSTFYADSVKGRFTISRDNPKNTVYLQLNRLKPEDTAVYYCNALRRGVRDPYGYWGQGTQVTVSS | high polyreactivity |
| QVQLVESGGGLVQAGGSLRLSCAASGRNIHFNAMGWYRQAPGKERELVAGITFIGTSTYYADSVKGRFTISRDNAKNTVYLQMNSLKPDDTAVYYFAASAVALPYYAGDYDYWGQATQVTVSS | low polyreactivity |
| QVQLVESGGGLVQAGGSLRLSCAASGRIFAFYAMGWYRQAPGKERELVAAISWSGGSTYYADSVKGRFTISRDNAKNTVYLQMNSLKPEDTAVYYCAAYRTRGSAYPYDYWGQGTQVTVSS | high polyreactivity |
| QVQLVESGGGLVQAGGSLRLSCAASGSTFQVYAMGWYRQAPGKERELVATIRGVGSTNYADSVKGRFTISRDNAKKTVYLQMNSLKPEDTAVYYCNAAVSQFSHRWRRRITFDYWGQGTQVTVSS | low polyreactivity |

| Sequence | polyreactivity (PSR sort gate) |
| --- | --- |
| QVQLVESGGGLVQAGGSLRLSCAASGSIFTYYAMGWYRQAPGKERELVAAITSTGGSTYYADSVKGRFTISRDNAKNTVYLQMNSQKPEDTAVYYCATDYGYYDYWGQGTQVTVSS | low polyreactivity |
| QVQLVESGGALVQAGGSLRLSCAASARIFGRNAMGWYTQAPGKERELVAAISSGGSTYYADSVKGRFTISRDNAKKTVYLQMNSLKPEDTAVYYCAVRGYYFNGGRAFESWGQGTQVTVSS | high polyreactivity |
| QVQLVESGGGIVQAGGSLRLSCAASGSTIDYNAMGWYRQARGQERELVAAITSGGSTSYADSVKGRFTISRENAKNTVYLQMNSLKPEDTAGYYCAVKRYWLWWYDYWGQGTQVTVSS | high polyreactivity |
| QVQLEESGRGLVQAGGSLRLSCAASGSTCYDYAMGWYRQAPGKERELVAASSRIGARTYYADSVKGRFTISRDNAKNTVYLQMNSQKPEDTAGYYCAATRVYSDYKYWGQGTQVTVSS | high polyreactivity |
| QVQLVESGGGLVQAGGSLRLSCAASGIIFLVNAMGWYRQAPGKESELVATITSGGSTYADSVKGRFTISRDNAKYTVYLQMNSLKPEDTAVYYCAAVRRRRNSYGYWGQGTQVTVSS | high polyreactivity |
| QVQLVESGGGLVQAGGSHRLSSAASARTFQDNPMGWYRQAPGKERELVAAISWRGGSTNYADSVKGRFTITRDNAKNTVYLQMNSLKPEDTAVYYCTRDRRKYGKLDYWGQGTQVTVSS | low polyreactivity |
| QVQLVESGGGLVQAGGSLRLSCSASGRTFHYYAMGWYRQAPGKERELVAVIRYSGGRTYYADSVKGRFTISRDNAKNTVYLQMNSLKPEDTAVYYCNKGRWRTDQPVYLIAFDYWGQGTQVTVTS | low polyreactivity |
| QVQLVESGGGLVQAGGSLRLSCAASGRTLRRYAMGWYRQAPGKERELVAAISRSGSSTYADSVKGRFTISRDNAKNTVSLQMNSLKPEDTAVYYCNAYQPRYGYWGQGTQVTVSS | high polyreactivity |
| QVQLVESGGGLVQAGGSLRLSCAASGSIFAYYAMGWYRQAPGKERELVAAITSGDSTYYADSVKGRFTISRDNAKNTVYLQMNSLKPEDSAVYYCAADVSWRSNWYDYWGQGTQVTVSS | low polyreactivity |
| QVQLVESGGGLVQAGGSLRLSCAASGFTFSFYAMGRYRQAPGKEREYVAAITNSGGSTYYADSVKGRFTISRDNAKNTVYLQMNSLKPEDTGVYYCASKRAWPGYFTYYSWGQGTQVTVSS | high polyreactivity |
| QVQLVESGGGLVEAGGSLRLSCAASGRIFLYKAMGWYRQAPVKERELVAAITASGGTTYYADSVKGRFTLSRDNAKNTVYLQMNSLKPEDTAVYYCNAYSYSGERYYWGQGTQVTVSS | high polyreactivity |
| QVQLVESGGGLVQAGGSLRLSCAASGFTFGYNAMGWYRQTPGKERELVAVITQSGGRTYYADSVKGRFTISRDNAKNTVYLQMNSLKPEDTAVYYCAARYRLPPYYYWGQGTQVTVSS | high polyreactivity |
| QVQLVESGGGKVQAGGSLRLSCAASGRIFPEYAMGWYRQAPGKERELVAAISSGDNTTYADSVKGRFTISRDNAKNTVYLQMNSLKPEDTAVYYCNAGSGTTGQGGPIIEYGYWGQGTQVTVSS | low polyreactivity |
| QVQLVESGGGLVQAGGSLRLSCAASGSTFGFYAMGWYRQAPGKERELVAAITGGGSTNYADSVKGRFTISRDNAKNTVYLQMNSLNPEDTAVYYCAVVQRYWYPGIVPYDYWGQGTQVTVSS | high polyreactivity |
| QVQLVESGGGLVQAGGSLRLSCAASGSISGYNAMGWYRPAPGKERELVAVITTDGSTNYADSVKGRFTISRDNAKNTVYLQMNSLKPEDTAVYYCNTDDGWRLLWEYDYWGQGTQVTVSS | low polyreactivity |
| QVQLVESGGGLVQAGGSLRLSCAASGITFYDYAMGWSRQAPGKDRELVSAINSSGVRTYYADSVKGRFTISRDNAKNTVYLQMNSLKPEDTAVYYCAAERYYYFVPYWYDYWGQGTQVTVSS | high polyreactivity |
